Source: patent US20040081647A1 (published 2004)

Molecular target: T1, human TNFα fusion protein with an N-terminal S-Tag (human, UniProt P01375 77-233)
T1 construct: Constructed, expressed and purified by the applicants; also called S-TNF; not shown: 15 amino acid S-Tag peptide (Novagen)
Assay: indirect ELISA: sp55 from conditioned media captured on Ni-NTA wells, S-TNF at 1 µg/mL, S-protein-HRP, absorbance at 370 nm

T1 sequence (P01375 77-233): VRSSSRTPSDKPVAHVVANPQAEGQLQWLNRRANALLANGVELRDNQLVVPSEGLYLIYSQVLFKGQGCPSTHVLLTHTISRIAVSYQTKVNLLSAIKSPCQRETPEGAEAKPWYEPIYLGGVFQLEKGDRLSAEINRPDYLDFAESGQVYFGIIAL

B1: sp55 address domain (human TNFR-1 ecto-domain residues 30-211) with C-terminal myc and His6 tags (receptor)
chain: DAAQPARRAVRSLVPHLGDREKRDSVCPQGKYIHPQNNSICCTKCHKGTYLYNDCPGPGQDTDCRECESGSFTASENHLRHCLSCSKCRKEMGQVEISSCTVDRDTVCGCRKNQYRHYWSENLFQCFNCSLCLNGTVHLSCQEKQNTVCTCHAGFFLRENECVSCSNCKKSLECTKLCLPQIENVKGTEDSGTTRGGPEQKLISEEDLNSAVDHHHHHH
notes: also called p55FL-myc-his; p55FL
fold elevation of S-TNF binding over non-specific binding in control samples: 3 fold
